Measured values taken from article PMC4650537, “Loss of Caspase-3 sensitizes colon cancer cells to genotoxic stress via RIP1-dependent necrosis” (Cell Death & Disease, 2015).

Target: T1, pro-caspase-8 (human (endogenous in HCT116), UniProt Q14790 1-479)
T1 construct: caspase-8, human, endogenous in HCT116 colon cancer cells; Precipitated with a caspase-8 antibody (IP-Cas-8); also called Cas-8; source: endogenous, HCT116 (WT or caspase-3 knockout) whole cell lysate
Experiment: co-IP; IP with caspase-8 antibody (IP-Cas-8) from lysates of HCT116 WT or C3KO cells treated with DMSO or 5-FU (50 μg/ml) for 24 h; also with z-VAD (20 μM) and with or without glutathione (GSH, 10 μM); blots quantified (Supplementary Tables S2, S3)
Details: partners not purified

T1 sequence (Q14790 whole entry): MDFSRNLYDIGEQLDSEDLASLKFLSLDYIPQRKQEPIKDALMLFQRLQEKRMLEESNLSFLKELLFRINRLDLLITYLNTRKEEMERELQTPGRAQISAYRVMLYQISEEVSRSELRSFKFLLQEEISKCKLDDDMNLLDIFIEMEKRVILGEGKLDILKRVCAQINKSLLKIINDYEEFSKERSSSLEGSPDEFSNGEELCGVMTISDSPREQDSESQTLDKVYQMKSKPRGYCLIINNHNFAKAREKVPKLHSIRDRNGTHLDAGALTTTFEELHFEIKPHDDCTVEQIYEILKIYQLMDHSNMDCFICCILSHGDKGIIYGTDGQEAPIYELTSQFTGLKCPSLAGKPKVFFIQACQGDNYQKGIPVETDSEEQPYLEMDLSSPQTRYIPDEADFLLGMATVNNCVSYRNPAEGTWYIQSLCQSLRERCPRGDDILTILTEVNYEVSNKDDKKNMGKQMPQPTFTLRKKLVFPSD

B1: Fas (TNFRSF6)-associated via death domain (natural protein, human (endogenous in HCT116), UniProt Q13158 1-208, looked up)
chain: MDPFLVLLHSVSSSLSSSELTELKFLCLGRVGKRKLERVQSGLDLFSMLLEQNDLEPGHTELLRELLASLRRHDLLRRVDDFEAGAAAGAAPGEEDLCAAFNVICDNVGKDWRRLARQLKVSDTKIDSIEDRYPRNLTERVRESLRIWKNTEKENATVAHLVGALRSCQMNLVADLVQEVQQARDLQNRSGAMSPMSWNSDASTSEAS
notes: FADD, human, endogenous in HCT116 colon cancer cells; also called FADD; source: endogenous, HCT116 (WT or caspase-3 knockout) whole cell lysate
- quantified 5-FU-induced FADD in the complex (C3KO cells, without z-VAD; FADD term of the FADD to RIP1 ratio): 1.82
- quantified 5-FU-induced FADD in the complex (with z-VAD; FADD term of the FADD to RIP1 ratio): 7.5

B2: receptor (TNFRSF)-interacting serine-threonine kinase 1 (natural protein, human (endogenous in HCT116), UniProt Q13546 1-671, looked up)
chain: MQPDMSLNVIKMKSSDFLESAELDSGGFGKVSLCFHRTQGLMIMKTVYKGPNCIEHNEALLEEAKMMNRLRHSRVVKLLGVIIEEGKYSLVMEYMEKGNLMHVLKAEMSTPLSVKGRIILEIIEGMCYLHGKGVIHKDLKPENILVDNDFHIKIADLGLASFKMWSKLNNEEHNELREVDGTAKKNGGTLYYMAPEHLNDVNAKPTEKSDVYSFAVVLWAIFANKEPYENAICEQQLIMCIKSGNRPDVDDITEYCPREIISLMKLCWEANPEARPTFPGIEEKFRPFYLSQLEESVEEDVKSLKKEYSNENAVVKRMQSLQLDCVAVPSSRSNSATEQPGSLHSSQGLGMGPVEESWFAPSLEHPQEENEPSLQSKLQDEANYHLYGSRMDRQTKQQPRQNVAYNREEERRRRVSHDPFAQQRPYENFQNTEGKGTAYSSAASHGNAVHQPSGLTSQPQVLYQNNGLYSSHGFGTRPLDPGTAGPRVWYRPIPSHMPSLHNIPVPETNYLGNTPTMPFSSLPPTDESIKYTIYNSTGIQIGAYNYMEIGGTSSSLLDSTNTNFKEEPAAKYQAIFDNTTSLTDKHLDPIRENLGKHWKNCARKLGFTQSQIDEIDHDYERDGLKEKVYQMLQKWVMREGIKGATVGKLAQALHQCSRIDLLSSLIYVSQN
notes: also called RIP1; RIP; source: endogenous, HCT116 (WT or caspase-3 knockout) whole cell lysate
- quantified 5-FU-induced RIP1 in the complex (with z-VAD; RIP1 term of the FADD to RIP1 ratio): 7.3
